Where a chain is given by its changes, count along the chain named.
B1: Se-Met-MtPrpR_(81–486) (selenomethionine-derived MtPrpR_(81–486)) (domain or fragment)
chain: DARLVADLSDVFTDIGVEHAVSGAQIEEFVARMPEVGHSLVAVHRRLRAATEELEGYRSRATAETELPPARPMPFEEVRDFFYDRNNYIHDLDMAAERMFTESGMRTGGLDIQLAELMRDRFGISVVIDDNLPDTAKRRYHPDTKVLRVAHWLMPGQRAFQIATQLALVGQSDLISSIVATDDQLSTEARGVARIGLANYFAGAFLLPYREFHRAAEQLRYDIDLLGRRFGVGFETVCHRLSTLQRPRQRGIPFIFVRTDKAGNISKRQSATAFHFSRVGGSCPLWVVHDAFAQPERIVRQVAQMPDGRSYFWVAKTTAADGLGYLGPHKNFAVGLGCDLAHAHKLVYSTGVVLDDPSTEVPIGAGCKICNRTSCAQRAFPYLGGRVAVDENAGSSLPYSSTEQSV
modifications: selenomethionine incorporated in place of methionine
notes: also called Se-PrpR_(81–486); not shown: His6, N-terminal, kept
B2: MtPrpR_(81–486)_F155H variant (domain or fragment)
chain: B1 chain with F75H
notes: also called MtPrpR_(81–486)_F155H mutant; MtRamB-like mutant of MtPrpR; not shown: His6, N-terminal, kept

How the values were obtained:
crystal structure = molecular target: the molecule itself; assay: crystal structure
SEC = molecular target: the molecule itself; assay: SEC

Protein | stoichiometry N (crystal structure) | stoichiometry N (SEC)
B1 | 4 | –
B2 | – | 4

From PMC6765138 (Nucleic Acids Research, 2019)
